Substitutions are numbered along the chain they refer to. In names and notes the source's numbering stands.
T1: PUF4 RNA-binding domain (Saccharomyces cerevisiae, UniProt P25339 537-888)
T1 sequence: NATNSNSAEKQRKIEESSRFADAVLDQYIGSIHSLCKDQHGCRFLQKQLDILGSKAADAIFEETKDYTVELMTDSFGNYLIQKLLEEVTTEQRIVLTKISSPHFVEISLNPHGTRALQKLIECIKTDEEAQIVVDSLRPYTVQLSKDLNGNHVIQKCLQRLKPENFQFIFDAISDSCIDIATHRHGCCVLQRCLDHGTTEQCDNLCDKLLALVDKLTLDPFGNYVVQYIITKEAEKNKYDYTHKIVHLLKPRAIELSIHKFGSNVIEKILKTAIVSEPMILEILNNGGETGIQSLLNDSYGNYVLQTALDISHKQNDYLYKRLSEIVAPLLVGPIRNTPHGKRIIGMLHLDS

B1: Ib_S1_P5E.1_K5.1_C5.1_H5.1_[G2C]_A5.1_[T5C]_F5.1_T5.1 (ssRNA)
RNA: UCUCUUUCUACUAUUAUCUCUU
B2: Ib_S1_P5E.1_K5.1_C5.1_H5.1_[G2C]_A5.1_[T5A]_F5.1_T5.1 (ssRNA)
RNA: UCUCUUUCUAAUAUUAUCUCUU
B3: Ia_S1_P5E.1_K5.1_C5.1_H5.1_A5.1_[T6C]_F5.1_T5.1 (ssRNA)
RNA: UCUCUUUGUAUCAUUAUCUCUU
B4: Id_ii_S4_P3E.3_K3.2_C3.2_[T-1C]_H3.2_A3.1_F3.1_T3.2_[T9C]_[A10C] (ssRNA)
RNA: UUUGACAACUGAUCGUUCUUUCUCCUAUAUAUACCUUCUUUCUCGAUCAGUUGUCUUU
B5: Id_ii_S4_P3E.4_K3.3_C3.2_[C-2G]_[T-1C]_H3.3_A3.1_F3.1_T3.2_[T9G]_[A10T] (ssRNA)
RNA: B4 RNA with C24G, U26A, A27C, U28A, A29C, C34G, C35U
B6: Id_ii_S4_P3E.3_K3.2_C3.2_H3.2_A3.1_F3.1_T3.2_[A10C] (ssRNA)
RNA: B4 RNA with C25U, C34U
B7: Id_ii_S4_P3E.3_K3.2_C3.2_H3.2_A3.1_F3.1_T3.2_[T9C]_[A10C] (ssRNA)
RNA: B4 RNA with C25U
B8: Id_ii_S4_P3E.3_K3.2_C3.2_H3.2_A3.1_F3.1_T3.2_[A10G] (ssRNA)
RNA: B4 RNA with C25U, C34U, C35G
B9: Id_ii_S4_P3E.3_K3.2_C3.2_H3.2_A3.1_F3.1_T3.2 (ssRNA)
RNA: B4 RNA with C25U, C34U, C35A
B10: Id_ii_S4_P3E.3_K3.2_C3.2_H3.2_A3.1_F3.1_T3.2_[A10T] (ssRNA)
RNA: B4 RNA with C25U, C34U, C35U
B11: Id_ii_S4_P3E.4_K3.3_C3.2_[C-2T]_[T-1C]_H3.3_A3.1_F3.1_T3.2_[T9C]_[A10G] (ssRNA)
RNA: B4 RNA with C24U, U26A, A27C, U28A, A29C, C35G
B12: Id_ii_S4_P3E.3_K3.2_C3.2_H3.2_A3.1_F3.1_T3.2_[T9G]_[A10C] (ssRNA)
RNA: B4 RNA with C25U, C34G
B13: Id_ii_S4_P3E.3_K3.2_C3.2_[T-1C]_H3.2_A3.1_F3.1_T3.2_[A10G] (ssRNA)
RNA: B4 RNA with C34U, C35G
B14: Id_ii_S4_P3E.4_K3.3_C3.2_[C-2G]_H3.3_A3.1_F3.1_T3.2_[T9C]_[A10C] (ssRNA)
RNA: B4 RNA with C24G, C25U, U26A, A27C, U28A, A29C
B15: Id_ii_S4_P3E.3_K3.2_C3.2_[T-1C]_H3.2_A3.1_F3.1_T3.2_[A10T] (ssRNA)
RNA: B4 RNA with C34U, C35U
B16: Id_ii_S4_P3E.3_K3.2_C3.2_[T-1A]_H3.2_A3.1_F3.1_T3.2_[T9G]_[A10C] (ssRNA)
RNA: B4 RNA with C25A, C34G
B17: Id_ii_S4_P3E.3_K3.2_C3.2_[T-1A]_H3.2_A3.1_F3.1_T3.2_[T9A] (ssRNA)
RNA: B4 RNA with C25A, C34A, C35A
B18: Id_ii_S4_P3E.4_K3.3_C3.2_[C-2G]_[T-1C]_H3.3_A3.1_F3.1_T3.2_[T9A]_[A10T] (ssRNA)
RNA: B4 RNA with C24G, U26A, A27C, U28A, A29C, C34A, C35U
B19: Id_ii_S4_P3E.3_K3.2_C3.2_[T-1C]_H3.2_A3.1_F3.1_T3.2_[T9C]_[A10T] (ssRNA)
RNA: B4 RNA with C35U
B20: Id_ii_S4_P3E.3_K3.2_C3.2_[T-1C]_H3.2_A3.1_F3.1_T3.2_[T9A]_[A10C] (ssRNA)
RNA: B4 RNA with C34A
B21: Id_ii_S4_P3E.4_K3.3_C3.2_[C-2G]_[T-1C]_H3.3_A3.1_F3.1_T3.2_[T9C] (ssRNA)
RNA: B4 RNA with C24G, U26A, A27C, U28A, A29C, C35A
B22: Id_ii_S4_P3E.3_K3.2_C3.2_H3.2_A3.1_F3.1_T3.2_[T9A]_[A10C] (ssRNA)
RNA: B4 RNA with C25U, C34A
B23: Id_ii_S4_P3E.4_K3.3_C3.2_[C-2G]_[T-1C]_H3.3_A3.1_F3.1_T3.2_[T9C]_[A10C] (ssRNA)
RNA: B4 RNA with C24G, U26A, A27C, U28A, A29C
B24: Id_ii_S4_P3E.4_K3.3_C3.2_[C-2G]_H3.3_A3.1_F3.1_T3.2_[T9A]_[A10T] (ssRNA)
RNA: UUUGACAACUGAUCGUUCUUUCUGUACACUAUAAUUUCUUUCUCGAUCAGUUGUCUUU
B25: Id_ii_S4_P3E.4_K3.3_C3.2_[C-2G]_H3.3_A3.1_F3.1_T3.2_[A10T] (ssRNA)
RNA: B24 RNA with A34U

Target: T1, PUF4 RNA-binding domain
Assay: Mg; RNA-MaP; 20 mM Na-HEPES pH 7.4, 30 mM KOAc, 0.75 mM MgCl2, 0.1% Tween-20, 5% glycerol, 0.1 mg/mL BSA, 2 mM DTT; 25 C; 0.0125-409.6 nM protein
Settings: tags: N-His6-TEV cleaved; C-SNAP kept, Cy3B-labelled; label: tethered on chip by stalled RNA polymerase

Row | Binder | Kd [nM]
1 | B1 | > 2300
2 | B2 | > 2300
3 | B3 | 6.62
4 | B4 | 244
5 | B5 | 593
6 | B6 | 104
7 | B7 | 190
8 | B8 | 276
9 | B9 | 68.6
10 | B10 | 56.4
11 | B11 | > 2300
12 | B12 | 567
13 | B13 | 126
14 | B14 | 1.46
15 | B15 | 37.4
16 | B16 | 243
17 | B17 | 842
18 | B18 | 60.5
19 | B19 | 92.9
20 | B20 | 467
21 | B21 | 115
22 | B22 | 176
23 | B23 | 50.2
24 | B24 | 0.68
25 | B25 | 0.57

From paper PMC9352680, “A comprehensive thermodynamic model for RNA binding by the Saccharomyces cerevisiae Pumilio protein PUF4”
